The source of these data is patent US20090186027A1 (RAMOT AT TEL AVIV UNIVERSITY, published 2009).

This test addresses T1, β-amyloid peptide 1-40 (UniProt P05067 672-711).
T1 construct: domain: beta amyloid peptide 1-40; Residues 1-40 are counted on Aβ, not on the APP entry; Coated after overnight incubation at 37 C (ELISA) or pre-aggregated for a week (ThT assay); also called Aβp 1-40; AβP 1-40
The test is described as follows: ELISA, constant 10 µM Aβ 1-40 coated, 3.125-25 µM antibody; reference 37L. As for the experimental part:
Wells were washed and blocked with 3% milk powder in PBS for 1 hr at 37° C. […] The rest of the ELISA assay was performed as described above.

B1: 37H (single domain antibody, heavy chain variable domain of scFv RCK37) (other)
VH: MAHVQFVQSGGDLVKPGGSLKLSCAASGFTFSSYGMSWVRQTPDKRLEWVATISSGGSYTYYPDSVKGRFTISRDNAKNTLYLQMSSLKSEDTAMYYCARHNYGSSYPYAMDYWGQGTPVTVSA
notes: also called 37H nanobody; nanobody 37H; not shown: C-terminal His tag from the pET28/pET21 vector
Consider B1, for which the “fold stronger binding than 37L” value came to 5 times.
